Test results reported in article PMC8447495, “Dissecting Monomer-Dimer Equilibrium of an RNase P Protein Provides Insight Into the Synergistic Flexibility of 5’ Leader Pre-tRNA Recognition” (Frontiers in Molecular Biosciences, 2021).

Biological target: the molecule itself
Assay: NMR (preliminary experiments); highly purified P protein at 25°C

B1: Thermotoga maritima RNase P protein (natural protein)
chain: TESFTRRERLRLRRDFLLIFKEGKSLQNEYFVVLFRKNGLDYSRLGIVVKRKFGKATRRNKLKRWVREIFRRNKGVIPKGFDIVVIPRKKLSEEFERVDFWTVREKLLNLLKRIEG
modifications: 15N, 13C-labeled
notes: RNase P protein component (rnpA gene) of Thermotoga maritima; numbering corresponds to UniProtKB Q9X1H4; Exists as monomer and dimer in equilibrium in solution; the preparation follows Zeng et al., 2018; also called T. maritima RNase P protein; source: E. coli BL21 Gold, M9 minimal media, purified (thrombin-treated lysate, denaturation-renaturation, 15S cation exchange); not shown: GST, …
stoichiometry N: 2
